The source of these data is paper doi:10.1101/2020.11.02.20223404.

For the experiment, the target named is angiotensin-converting enzyme 2 (ACE2) (human) (UniProt Q9BYF1). Nature of the experiment: other fluorescence titration.
UniProt Q9BYF1, sequence (Q9BYF1 18-805): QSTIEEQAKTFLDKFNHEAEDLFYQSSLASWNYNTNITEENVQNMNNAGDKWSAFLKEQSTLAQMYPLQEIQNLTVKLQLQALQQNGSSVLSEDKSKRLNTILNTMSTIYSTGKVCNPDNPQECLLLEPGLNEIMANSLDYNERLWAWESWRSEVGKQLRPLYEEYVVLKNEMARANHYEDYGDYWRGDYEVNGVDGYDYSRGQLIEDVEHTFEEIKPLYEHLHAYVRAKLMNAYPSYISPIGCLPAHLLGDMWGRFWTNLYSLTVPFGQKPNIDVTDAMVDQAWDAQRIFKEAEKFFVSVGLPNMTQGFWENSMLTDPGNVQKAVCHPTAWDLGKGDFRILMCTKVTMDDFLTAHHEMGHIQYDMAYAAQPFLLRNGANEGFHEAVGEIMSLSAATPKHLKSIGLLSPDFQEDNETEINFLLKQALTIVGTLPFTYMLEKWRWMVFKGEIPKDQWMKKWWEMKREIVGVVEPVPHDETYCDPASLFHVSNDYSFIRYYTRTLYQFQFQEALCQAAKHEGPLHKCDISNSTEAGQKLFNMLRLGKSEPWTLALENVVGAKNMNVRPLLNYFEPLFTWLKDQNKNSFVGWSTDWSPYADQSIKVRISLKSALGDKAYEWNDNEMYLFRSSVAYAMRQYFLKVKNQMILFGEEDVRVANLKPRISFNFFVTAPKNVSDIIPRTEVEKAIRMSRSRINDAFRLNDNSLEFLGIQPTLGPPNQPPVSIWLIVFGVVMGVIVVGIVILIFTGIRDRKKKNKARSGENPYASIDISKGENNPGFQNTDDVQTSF

Turning to “SARS-CoV-1 spike receptor-binding domain (S RBD) (domain or fragment)”, the ΔF/F0 of the 1130 nm SWCNT emission peak after 90 min, 10 mg/L is 88.4%.
